Measured values reported in the RNAGym collection of RNA variant scans (doi:10.1093/molbev/msab373).

B1: Azoarcus group I ribozyme (parent)
chain: GUGCCUUGCGCCGGGAAACCACGCAAGGGAUGGUGUCAAAUUCGGCGAAACCUAAGCGCCCGCCCGGGCGUAUGGCAACGCCGAGCCAAGCUUCGGCGCCUGCGCCGAUGAAGGUGUAGAGACUAGACGGCACCCACCUAAGGCAAACGCUAUGGUGAAGGCAUAGUCCAGGGAGUGGCGAAAGUCACACAAACCGG

Variants of: B1
Experiment: reverse-splicing fitness (ratio to wild type); higher = more active; in vitro selection; Mg2+ level not given
Summary of the method: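 An in vitro group I ribozyme library with randomized positions was T7-transcribed and gel-purified. In triplicate, 10 pmol RNA in EPPS pH 7.5 was reacted with 50 pmoles of a 30-nt RNA substrate for 1 h at 37 °C across several added MgCl2 levels (1–48 mM), then stopped with EDTA. Products were reverse transcribed from a substrate-complementary primer, PCR-amplified and sequenced (HiSeq 4000). Fitness is a variant's read proportion after selection over that before, normalised to wild type.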

In order of falling reverse-splicing fitness:
1. C82U A111U A120U A145G  0.0251
2. C82U A111U A120G C169G U176C  0.0225
3. C82U A111U A120G C169U U176A  0.0215
4. C82U A111U A120G C150U C169U U176A  0.0214
5. C82U A111U A120U A145C  0.0211
6. C82U A111U A120G C169G U176A  0.0203
7. C82U A111U A120G C150A C169A U176A  0.0189
8. C82U A111U A120G C150A C169A U176C  0.0173
9. C82U A111U A120G C150U C169G U176C  0.0168
10. C82U A111U A120G U176C  0.0165
11. C82U A111U A120G C169U U176C  0.0161
12. C82U A111U A120G C150U C169U U176C  0.0158
13. C82U A111U A120G C150U C169G U176A  0.0146
14. C82U A111U A120G C150U U176C  0.0136
15. C82U A111U A120G A145U C150U C169G U176C  0.0134
16. C82U A111U A120G A145U U176C  0.0131
17. C82U A111U A120G A145U C150U U176C  0.013
18. C82U A111U A120G U176A  0.0123
19. C82U A111U A120G A145U C169G U176C  0.0121
20. C82U A111U A120G A145U U176A  0.012
21. C82U A111U A120G A145U C150U C169G U176A  0.0119
22. C82U A111U A120G A145U C169A U176A  0.0113
23. C82U A111U A120G A145U C169G U176A  0.0111
24. C82U A111U A120G C150U C169A  0.0102
25. C82U A111U A120G C150U U176A  0.0102
26. C82U A111U A120G A145U C169A U176C  0.0101
27. C82U A111U A120G A145U C150U C169A U176C  0.00959
28. C82U A111U A120G A145U C150U U176A  0.00953
29. C82U A111U A120G C150U C169G  0.00909
30. C82U A111U A120G C150U C169U  0.00882
31. C82U A111U A120U A145C C150U  0.00815
32. C82U A111U A120U A145G C150A C169G U176A  0.00789
33. C82U A111U A120G C150G C169A  0.00782
34. C82U A111U A120G C150G U176C  0.00776
35. C82U A111U A120G C150G C169G  0.00757
36. C82U A111U A120U A145C U176C  0.00756
37. C82U A111U A120G C150G C169U  0.00755
38. C82U A111U A120G C150U C169U U176G  0.00647
39. C82U A111U A120U A145G C150A C169A U176A  0.0063
40. C82U A111U A120U A145C U176A  0.00627
41. C82U A111U A120G C150G C169G U176A  0.00605
42. C82U A111U A120G C169U U176G  0.00594
43. C82U A111U A120U A145C C150G  0.00588
44. C82U A111U A120G C150A C169A U176G  0.00561
45. C82U A111U A120G C150U U176G  0.00537
46. C82U A111U A120G C150G U176A  0.00524
47. C82U A111U A120G U176G  0.00474
48. C82U A111U A120U A145C C150U U176C  0.00469
49. C82U A111U A120U A145C C150A  0.00466
50. C82U A111U A120G A145U C150U C169G U176G  0.00463
51. C82U A111U A120G A145U C150U C169A U176G  0.00462
52. C82U A111U A120G C150U C169G U176G  0.00456
53. C82U A111U A120G A145U U176G  0.0045
54. C82U A111U A120U A145G C150A C169G U176C  0.0045
55. C82U A111U A120G C150G C169G U176C  0.00449
56. C82U A111U A120G A145U C150U U176G  0.00443
57. C82U A111U A120G C169G U176G  0.00437
58. C82U A111U A120G C150G C169G U176G  0.00425
59. C82U A111U A120G A145U C169G U176G  0.00402
60. C82U A111U A120U A145C C150U U176A  0.00399
61. C82U A111U A120G A145U C169A U176G  0.00391
62. C82U A111U A120U A145G C150A C169A U176C  0.00382
63. C82U A111U A120G C150G U176G  0.00288
64. C82U A111U A120U A145C C150U C169U  0.00288
65. C82U A111U A120U A145C C150U C169G U176C  0.00287
66. C82U A111U A120U A145C C150U C169G U176A  0.00283
67. C82U A111U A120U A145C C150U C169G  0.00276
68. C82U A111U A120U A145C C150U U176G  0.0026
69. C82U A111U A120U A145C U176G  0.00259
70. C82U A111U A120U A145C C150U C169U U176C  0.00256
71. C82U A111U A120U A145C C150G C169U U176A  0.00255
72. C82U A111U A120U A145C C150A C169U  0.00254
73. C82U A111U A120U A145C C169U U176A  0.00247
74. C82U A111U A120U A145G C150A C169A U176G  0.00245
75. C82U A111U A120U A145G C150A C169G U176G  0.00241
76. C82U A111U A120U A145C C169U U176C  0.0022
77. C82U A111U A120U A145C C150G C169U U176C  0.0022
78. C82U A111U A120U A145C C150U C169A  0.0022
79. C82U A111U A120U A145C C150G C169U U176G  0.00218
80. C82U A111U A120U A145C C150A C169G  0.00215
81. C82U A111U A120U A145C C150A C169A  0.00214
82. C82U A111U A120U A145C C150U C169U U176G  0.00212
83. C82U A111U A120U A145C C150U C169U U176A  0.00211
84. C82U A111U A120U A145C C169U U176G  0.00177
